Patent US20050152899A1, “EphA2 agonistic monoclonal antibodies and methods of use thereof” (priority 2002, published 2005)
One block for each molecule: values may come before it.

How the values were obtained:
[1] = system: MCF-7^EphA2 cells; assay: Colony formation in soft agar, MCF-7^EphA2 cells; type: cell-based
Procedure: (§1) Tumor cells were suspended in soft agar. Colony formation in soft agar was assayed as described in Zelinski et al. (2001, Cancer Res. 61: 2301-6). Antibodies or a control solution (PBS) was included in bottom and top agar solutions. […] Colony formation was scored microscopically using an Olympus CK-3 inverted phase-contrast microscope outfitted with a 40× objective. Clusters containing at least three cells were scored as a positive. The average number of colonies per high-powered field is shown. Ten separate high-power microscopic fields were averaged in each experiment, and the results shown are representative of at least three separate experiments.
(§2) A549 malignant lung cancer cells were incubated with either 10 μg/ml or 2.5 μg/ml of EA5 or EA2 monoclonal antibodies or a control (PBS). […] Benign MCF-7 breast epithelial tumor cells were converted to malignant cells by the overexpression of EphA2 (MCF-7^EphA2). Both tumor cell types were incubated with either EA5 monoclonal antibodies or a control (PBS). […] Results are reported as colonies per high-powered field (HPF).
(§3) Growth assays were conducted as follows. MCF-7^neo (control cells) or MCF7^EphA2 cells were seeded in 96-well plates. […] Colony formation in soft agar was performed as previously described (Zelinski et al., 2001, Cancer Res. 61: 2301-6) and scored microscopically, defining clusters of at least three cells as a positive. The data represent the average of ten separate high-power microscopic fields from each sample and representative of at least three separate experiments. Error bars represent the standard error of the mean of at least three different experiments as determined using Microsoft Excel software.
Sensitivity of MCF-7^EphA2 cells to tamoxifen was measured.
Growth MCF-7^EphA2 cells which had decreased EphA2 expression levels was assayed in soft agar.

[2] = system: estrogen receptor; assay: Estrogen receptor activity, ERE-TK-CAT reporter; type: cell-based; conditions: control and MCF-7^EphA2 cells, tamoxifen 10^−6 M
Procedure: Estrogen receptor activity was measured using ERE-TK-CAT vector (which encodes a single ERE; a generous gift from Dr. Nakshatri, Indiana University School of Medicine) in the unstimulated state, after estradiol (10^−8 M) stimulation and tamoxifen (10^−6 M) inhibition. Cells were plated in phenol red free, charcoal stripped sera for 2 days and transfected with ERE-TK-CAT (5 μg) using calcium phosphate method. The β-galactosidase expression vector RSV/β-galactosidase (2 μg, Dr. Nakshatri's gift) was cotransfected as a control. Fresh media including the appropriate selection drugs were added 24 hours after transfection. Cells were harvested after 24 hours and CAT activity was evaluated as described (Nakshatri et al., 1997, Mol. Cell. Biol. 17: 3629-39).

[3] = system: MCF-7^EphA2 cells; assay: Tumorigenic potential of MCF-7^EphA2 vs MCF-7^neo cells in mammary fat pad under tamoxifen; type: in vivo, athymic (nu/nu) mice; conditions: MCF-7^EphA2 vs control MCF-7^neo; tamoxifen 1 mg oral gavage 6 days per week, supplemental estrogen
Procedure: Six to eight week-old athymic (nu/nu) mice were purchased from Harlan Sprague Dawley (Indianapolis, Ind.). When indicated, a controlled release estradiol pellet (0.72 mg 17β-estradiol, 60-day formulation) was injected subcutaneously via a sterile 14-gauge trocar 24 hours prior to tumor implantation and pellets were replaced every 60 days for those experiments spanning >60 days in duration. 1×10^6 MCF-7^neo or MCF7^EphA2 cells were injected into the mammary fat pad under direct visualization. When indicated, tamoxifen (1 mg) was administered by oral gavage 6 days per week.

[4] = system: control MCF-7 cells; assay: Colony formation in soft agar, control MCF-7 cells; type: cell-based
Procedure: as §1, §3
Sensitivity of MCF-7^EphA2 cells to tamoxifen was measured. […]

[5] = target: T1, EphA2 (Homo sapiens, UniProt P29317); assay: Immunofluorescent staining of MDA-MB-231 and MCF-10A cells; type: binding; set-up: endogenous in cells; host or cells: MDA-MB-231; MCF-10A
From the text: The epitope of the EphA2 antibodies were characterized. EA5 and EA2 selectively bind to malignant cells. The anti-EphA2 monoclonal antibodies EA5 and EA2 bind malignant MDA-MB-231 breast epithelial tumor cells (FIGS. 11A-11B) more strongly than benign MCF-10A breast epithelial tumor cells (FIGS. 11C-11D) as shown by immunofluorescent staining. […] The anti-EphA2 monoclonal antibody EA5 identified malignant prostate cancer cells in formalin-fixed, paraffin-embedded archival clinical specimens (FIG. 12).
EA5 preferentially binds an EphA2 epitope exposed on cancer cells but not non-cancer cells. Non-transformed MCF-10A cells or transformed MDA-MB-231 cells were incubated with 10 μg/ml EA2 at 4° C. for 30 min. prior to fixation in a 3% formalin solution and immunolabeling with fluorophore-conjugated anti-mouse IgG.

[6] = system: A549 malignant lung cancer cells; assay: Colony formation in soft agar, A549 cells; type: cell-based; conditions: 10 μg/ml or 2.5 μg/ml, 7 days at 37° C., vs PBS
Procedure: Tumor cells were suspended in soft agar. Colony formation in soft agar was assayed as described in Zelinski et al. (2001, Cancer Res. 61: 2301-6). Antibodies or a control solution (PBS) was included in bottom and top agar solutions. Cells were suspended in soft agar for 7 days at 37° C. in the presence of purified antibody or control solution (PBS), administered at the time of suspension. Colony formation was scored microscopically using an Olympus CK-3 inverted phase-contrast microscope outfitted with a 40× objective. Clusters containing at least three cells were scored as a positive. The average number of colonies per high-powered field is shown. Ten separate high-power microscopic fields were averaged in each experiment, and the results shown are representative of at least three separate experiments.
as §2

[7] = target: T1, EphA2; assay: EphA2 tyrosine phosphorylation and degradation in MDA-MB-231 cells (immunoprecipitation / western blot); type: cell-based; set-up: endogenous in cells; host or cells: MDA-MB-231; MCF-10A; conditions: MDA-MB-231 monolayers
Procedure: EphA2 antibodies promoted tyrosine phosphorylation and degradation of EphA2 in MDA-MB-231 (FIGS. 1A-1C) cells. Monolayers of cells were incubated in the presence of EA5 (FIGS. 1A-1B, lanes 2, 3) or EA2 (FIGS. 1A-1B, lanes 4, 5) or control (FIGS. 1A-1B, lane 1) for 8 minutes at 37° C. Cell lysates were then immunoprecipitated with an EphA2-specific antibody (D7, purchased from Upstate Biologicals, Inc., Lake Placid, N.Y. and deposited with the American Type Tissue Collection on Dec. 8, 2000, and assigned ATCC number PTA 2755), resolved by SDS-PAGE and subjected to western blot analysis with a phosphotyrosine-specific antibody (4G10, purchased from Upstate Biologicals, Inc., Lake Placid, N.Y.) (FIG. 1A). The membranes were stripped and re-probed with the EphA2-specific antibody used in the immunoprecipitation (D7) as a loading control.
Western blot analyses and immunoprecipitations were performed as described previously (Zantek et al., 1999, Cell Growth Diff. 10: 629-38). Briefly, detergent extracts of cell monolayers were extracted in Tris-buffered saline containing 1% Triton X-100 (Sigma, St. Louis, Mo.). […] Antibody binding was detected by enhanced chemiluminescence (Pierce, Rockford, Ill.) and autoradiography (Kodak X-OMAT; Rochester, N.Y.). […]

[8] = target: T1, EphA2; assay: EphA2 tyrosine phosphorylation and degradation in A549 cells (immunoprecipitation / western blot); type: cell-based; set-up: endogenous in cells; conditions: A549 monolayers
Procedure: Western blot analyses and immunoprecipitations were performed as described previously (Zantek et al., 1999, Cell Growth Diff. 10: 629-38). Briefly, detergent extracts of cell monolayers were extracted in Tris-buffered saline containing 1% Triton X-100 (Sigma, St. Louis, Mo.). After measuring protein concentrations (BioRad, Hercules, Calif.), 1.5 mg of cell lysate was immunoprecipitated, resolved by SDS-PAGE and transferred to nitrocellulose (Protran, Schleicher and Schuell, Keene, N.H.). Antibody binding was detected by enhanced chemiluminescence (Pierce, Rockford, Ill.) and autoradiography (Kodak X-OMAT; Rochester, N.Y.).
Similar experiments were conducted with A549 cells. Monolayers of A549 cells were incubated at 37° C. in the presence of EA5 or EA2 or control (PBS) for either 10 minutes (FIGS. 2A-2B) or 5 hours (FIGS. 2C-2D). Cell lysates were then immunoprecipitated with an EphA2-specific antibody (D7), resolved by SDS-PAGE and subjected to western blot analysis with a phosphotyrosine-specific antibody (4G10, purchased from Upstate Biologicals, Inc., Lake Placid, N.Y.) (FIGS. 2A, 2C). The membranes were stripped and re-probed with the EphA2-specific antibody used in the immunoprecipitation (D7) as a loading control (FIGS. 2B, 2D). […] (FIG. 2D).

[9] = target: T2, EphA2-Ephrin A1-Fc complex (Homo sapiens, UniProt P29317); assay: Binding to EphA2-Ephrin A1-Fc complex on microtiter plate; conditions: EphA2-Fc bound to immobilized Ephrin A1-Fc
T2 construct: consisting of the extracellular domain of EphA2 linked to human IgG1 constant region
Procedure: (§4) A microtiter plate was coated with […] Ephrin A1-Fc overnight at 4° C. A fusion protein consisting of the extracellular domain of EphA2 linked to human IgG1 constant region (EphA2-Fc) was incubated with and bound to the immobilized Ephrin A1-Fc. Biotinylated Ephrin A1-Fc or EA5 was incubated with the EphA2-Ephrin A1-Fc complex and amount of binding was measured.

[10] = target: T2, EphA2-Ephrin A1-Fc complex; assay: Competition for labeled EA5 on EphA2-Ephrin A1-Fc complex; type: binding; conditions: biotinylated EA5 10 μg/ml, 30 min.
Procedure: as §4
The EphA2-Ephrin A1-Fc complex was prepared as described above. Biotinylated EA5 (10 μg/ml) was then incubated with the complex for 30 min. Unlabeled competitor was incubated with EphA2-Ephrin A1-Fc-EA5 complex in the indicated amount. Unlabeled EA5 could displace the labeled EA5 at concentrations of 100 ng/ml or greater.

T1 sequence (P29317 24-976): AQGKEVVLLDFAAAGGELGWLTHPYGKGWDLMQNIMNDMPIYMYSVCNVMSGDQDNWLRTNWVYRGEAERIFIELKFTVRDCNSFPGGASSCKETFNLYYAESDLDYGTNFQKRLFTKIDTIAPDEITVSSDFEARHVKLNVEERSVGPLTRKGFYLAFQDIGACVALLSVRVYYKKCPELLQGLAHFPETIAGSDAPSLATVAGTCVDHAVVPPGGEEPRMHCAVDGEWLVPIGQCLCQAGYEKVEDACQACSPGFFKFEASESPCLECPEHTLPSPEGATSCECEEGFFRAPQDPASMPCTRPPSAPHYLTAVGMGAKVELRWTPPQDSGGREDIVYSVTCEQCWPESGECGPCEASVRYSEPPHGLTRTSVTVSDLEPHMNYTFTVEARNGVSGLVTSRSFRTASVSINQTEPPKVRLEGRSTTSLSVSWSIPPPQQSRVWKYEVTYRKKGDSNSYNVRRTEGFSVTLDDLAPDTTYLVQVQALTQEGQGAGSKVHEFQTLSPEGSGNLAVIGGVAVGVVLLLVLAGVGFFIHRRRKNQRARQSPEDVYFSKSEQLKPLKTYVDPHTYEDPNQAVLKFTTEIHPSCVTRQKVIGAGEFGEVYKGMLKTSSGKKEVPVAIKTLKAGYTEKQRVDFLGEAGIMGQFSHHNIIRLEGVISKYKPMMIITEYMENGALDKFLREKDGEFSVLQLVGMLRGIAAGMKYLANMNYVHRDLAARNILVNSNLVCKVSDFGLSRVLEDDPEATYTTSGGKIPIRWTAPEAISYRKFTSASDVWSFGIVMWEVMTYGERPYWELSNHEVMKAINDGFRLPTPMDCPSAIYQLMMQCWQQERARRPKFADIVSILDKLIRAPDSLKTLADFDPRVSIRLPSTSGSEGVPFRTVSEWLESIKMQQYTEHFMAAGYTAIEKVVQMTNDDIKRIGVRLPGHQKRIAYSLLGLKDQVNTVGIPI
T2 sequence (P29317 24-537 limits assumed, one chain of several): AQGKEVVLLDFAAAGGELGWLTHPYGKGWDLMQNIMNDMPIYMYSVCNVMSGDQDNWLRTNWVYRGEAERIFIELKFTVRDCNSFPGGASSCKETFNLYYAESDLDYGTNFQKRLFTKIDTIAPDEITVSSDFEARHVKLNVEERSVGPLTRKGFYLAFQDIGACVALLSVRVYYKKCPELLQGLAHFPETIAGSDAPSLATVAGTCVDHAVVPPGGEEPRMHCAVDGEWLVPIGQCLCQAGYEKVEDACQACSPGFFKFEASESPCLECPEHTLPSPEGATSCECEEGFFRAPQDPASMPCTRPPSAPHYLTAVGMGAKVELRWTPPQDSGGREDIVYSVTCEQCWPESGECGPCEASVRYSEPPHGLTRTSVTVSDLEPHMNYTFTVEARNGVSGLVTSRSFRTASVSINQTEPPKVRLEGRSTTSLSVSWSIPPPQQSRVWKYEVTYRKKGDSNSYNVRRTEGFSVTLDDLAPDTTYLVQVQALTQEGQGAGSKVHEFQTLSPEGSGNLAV

Molecule: C[C@]12CC[C@@H]3c4ccc(O)cc4CC[C@H]3[C@@H]1CC[C@@H]2O [estradiol, 17β-estradiol, reference compound]
Effect of excess estradiol on tamoxifen inhibition of soft agar colonization ([1]; 1 μM tamoxifen and 1 μM 17β-estradiol, MCF-7 or MCF-7^EphA2 cells (FIG. 8A)): overcame the inhibitory effects of tamoxifen

Molecule: CC/C(=C(\c1ccccc1)c1ccc(OCCN(C)C)cc1)c1ccccc1 [tamoxifen]
Estrogen receptor activity (CAT) [2]: remained sensitive to tamoxifen
Sensitivity of tumorigenic potential to tamoxifen [3]: less sensitive to tamoxifen
inhibition at 1 µM ([4]; Homo sapiens, MCF7, matched control MCF-7 cells, tamoxifen 1 μM (FIG. 10C), read-out: Inhibition of soft agar colonization): 75%
Reduction of soft agar colonization ([4]; control MCF-7 cells, 1 μM tamoxifen, 14 days (FIG. 8A)): at least 60%
inhibition at 1 µM ([1]; 336 h, MCF-7^EphA2 cells, 1 μM tamoxifen, 14 days (FIG. 8A), read-out: Inhibition of soft agar colonization): 25%
Decrease in soft agar colonization ([1]; MCF-7^EphA2 cells, tamoxifen 1 μM and/or EA5 10 μg/ml (FIG. 10C)): 25%

Binding to malignant MDA-MB-231 vs benign MCF-10A cells [5]: more strongly
EphA2 protein levels ([7]; 30 μg/ml, 24 hours at 37° C.): decrease
Levels of EphA2 phosphorylation ([7]; 8 minutes at 37° C., phosphotyrosine western blot): increase
EphA2 phosphorylation ([8]; 10 minutes at 37° C.): increase in phosphorylation
EphA2 protein degradation ([8]; 5 hours at 37° C.): degradation of the EphA2 protein
B1: EA2: EphA2 agonistic monoclonal antibody; hybridoma strain EA2.31, ATCC PTA-4380; VL SEQ ID NO:1, VH SEQ ID NO:5 (antibody, listed as Homo Sapiens, V domains shown)
VH: DVKLVESGGGLVKPGGSLKLSCAASGFTFSSYTMSWVRQTPEKRLEWVATISSGGTYTYYPDSVKGRFTISRDNAKNTLYLQMSSLKSEDTAMYYCTREAIFTYWGQGTLVTVSA
VL: DIKMTQSPSSMYASLGERVTITCKASQDINNYLSWFQQKPGKSPKTLIYRANRLVDGVPSRFSGSGSGQDYSLTISSLEYEDMGIYYCLKYDEFPYTFGGGTKLEIK
Cell growth in soft agar (colonies per high-powered field) [6]: inhibited cell growth in soft agar

B2: Ephrin A1-Fc: Fc form of the EphA2 ligand Ephrin A1, used biotinylated or unlabeled (protein)
chain: DRHTVFWNSSNPKFRNEDYTIHVQLNDYVDIICPHYEDHSVADAAMEQYILYLVEHEEYQLCQPQSKDQVRWQCNRPSAKHGPEKLSEKFQRFTPFTLGKEFKEGHSYYYISKPIHQHEDRCLRLKVTVSGKITHSPQAHDNPQEKRLAADDPEVRVLHSIGHS
modifications: left off: a dimerising Fc or GST
notes: Fc form of the EphA2 ligand Ephrin A1, used biotinylated or unlabeled
Amount of biotinylated protein bound to EphA2-Ephrin A1-Fc complex [9]: Very little additional Ephrin A1-Fc bound
Displacement of labeled EA5 by unlabeled competitor [10]: did not significantly displace labeled EA5
